First the molecules themselves.
B1: H56V, Q9NAV8 (parent)
chain: MGFKQDIATIRGDLRTYAQDIFLAFLNKYPDERRYFKNYVGKSDQELKSMAKFGDHTEKVFNLMMEVADRATDCVPLASDANTLVQMKQHSSLTTGNFEKLFVALVEYMRASGQSFDSQSWDRFGKNLVSALSSAGMK

In the first data set the parent is B1. The conditions noted are these: Amphitrite ornata; pH 7; 20 °C; Urea; UV?visible spectrophotometer; potassium phosphate 100 mM; transition: 2; reversible: yes; structure 1EW6; whole UniProt chain shown.
With H56V, the “ddG of mutation (higher = less stable)” value is -5.1 kcal/mol, the “denaturant midpoint (higher = more stable)” value came out at 5.35 M and the unfolding free energy turned out to be 7.52 kcal/mol.

Staying with this data set, now noted: Amphitrite ornata; pH 7; Thermal; UV?visible spectrophotometer; potassium phosphate 100 mM; transition: 2; reversible: yes; structure 1EW6; whole UniProt chain shown.
On to H56V, for which the Tm – broadly, the temperature at the midpoint of the melting transition – was 61 °C and the “change of melting temperature, mutant - wild type (higher = more stable)” value was determined as 7 °C.

For the origin of these results see FireProtDB (doi:10.1021/bi5005975).
